For the test, the target named is T1, PhyB_(1-651)-Avitag-His6 (A. thaliana, UniProt P14713 1-651, phycocyanobilin chromophore; biotin on the Avitag).
T1 construct: phytochrome B (PhyB), Arabidopsis thaliana, the light-responsive N-terminal 651 amino acids; 740 nm light puts them in the OFF state; also called PhyB(660); PhyB(740); source: E. coli BL21(DE3) co-transformed with p171 (phycocyanobilin production), 50 uM biotin in the medium, purified (Ni-NTA); not shown: Avitag, C-terminal, kept; His6, C-terminal, kept
T1 sequence (looked up): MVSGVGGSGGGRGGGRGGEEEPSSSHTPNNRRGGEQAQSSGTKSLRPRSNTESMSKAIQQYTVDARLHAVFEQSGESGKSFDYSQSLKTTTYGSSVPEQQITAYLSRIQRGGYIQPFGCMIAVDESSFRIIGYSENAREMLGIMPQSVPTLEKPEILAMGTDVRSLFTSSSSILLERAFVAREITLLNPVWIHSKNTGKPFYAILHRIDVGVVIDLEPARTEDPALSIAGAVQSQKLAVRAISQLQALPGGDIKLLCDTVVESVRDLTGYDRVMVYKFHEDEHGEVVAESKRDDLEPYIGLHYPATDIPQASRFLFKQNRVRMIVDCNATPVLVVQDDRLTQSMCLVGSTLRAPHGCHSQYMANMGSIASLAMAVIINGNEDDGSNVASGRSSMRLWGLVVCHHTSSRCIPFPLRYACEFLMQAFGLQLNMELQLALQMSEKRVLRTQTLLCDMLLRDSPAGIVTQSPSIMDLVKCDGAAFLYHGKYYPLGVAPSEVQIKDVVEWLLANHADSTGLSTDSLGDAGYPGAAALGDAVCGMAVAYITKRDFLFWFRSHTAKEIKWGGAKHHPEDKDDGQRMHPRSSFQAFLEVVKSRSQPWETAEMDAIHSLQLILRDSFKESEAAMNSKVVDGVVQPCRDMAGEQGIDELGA
Kind of test: SEC; 200 ug PhyB illuminated with 660 nm light, added in a 2:1 molar ratio to MBP-PIF (limiting MBP-PIF); 60 min at room temperature; Superdex 200 10/300 GL; PhyB detected at 671 nm. The settings on record: both partners purified. Background: SEC sorts molecules by how far they enter the pores of the column.

Consider one molecule from paper PMC6488296, “Optogenetic control shows that kinetic proofreading regulates the activity of the T cell receptor” (eLife, 2019).

B1: MBP-PIF6_(1-100)-His6 (domain or fragment, A. thaliana, UniProt Q8L5W7 1-100, looked up)
chain: MMFLPTDYCCRLSDQEYMELVFENGQILAKGQRSNVSLHNQRTKSIMDLYEAEYNEDFMKSIIHGGGGAITNLGDTQVVPQSHVAAAHETNMLESNKHVD
notes: also called MBP-PIF(wt); pOSY061; source: E. coli BL21(DE3), purified (Ni-NTA); not shown: His6, C-terminal, kept
On to B1, for which the binding result is “binds”.
